B1: Radial spoke head protein 3 homolog (Homo sapiens), Q86UC2 (parent)
chain: MTVKPAKAASLARNLAKRRRTYLGGAAGRSQEPEVPCAAVLPGKPGDRNCPEFPPPDRTLGCWATDAAPAAGLCGAGSEPSIAPTSCAGNLPSRPPPLLSPLLASRNPCPWHYLHLSGSHNTLAPTCFKAKLHRKRGSQPPDMASALTDRTSRAPSTYTYTSRPRALPCQRSRYRDSLTQPDEEPMHYGNIMYDRRVIRGNTYALQTGPLLGRPDSLELQRQREARKRALARKQAQEQLRPQTPEPVEGRKHVDVQTELYLEEIADRIIEVDMECQTDAFLDRPPTPLFIPAKTGKDVATQILEGELFDFDLEVKPVLEVLVGKTIEQSLLEVMEEEELANLRASQREYEELRNSERAEVQRLEEQERRHREEKERRKKQQWEIMHKHNETSQKIAARAFAQRYLADLLPSVFGSLRDSGYFYDPIERDIEIGFLPWLMNEVEKTMEYSMVGRTVLDMLIREVVEKRLCMYEHGEDTHQSPEPEDEPGGPGAMTESLEASEFLEQSMSQTRELLLDGGYLQRTTYDRRSSQERKFMEERELLGQDEETAMRKSLGEEELS
partner: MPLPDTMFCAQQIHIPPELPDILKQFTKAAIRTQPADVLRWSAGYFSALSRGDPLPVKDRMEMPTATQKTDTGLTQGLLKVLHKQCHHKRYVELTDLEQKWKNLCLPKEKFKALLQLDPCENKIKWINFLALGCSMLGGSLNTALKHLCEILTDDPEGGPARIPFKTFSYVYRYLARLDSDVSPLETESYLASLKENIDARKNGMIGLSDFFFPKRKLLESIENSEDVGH
B2: Peroxisomal bifunctional enzyme (Homo sapiens), Q08426 (parent)
chain: MAEYTRLHNALALIRLRNPPVNAISTTLLRDIKEGLQKAVIDHTIKAIVICGAEGKFSAGADIRGFSAPRTFGLTLGHVVDEIQRNEKPVVAAIQGMAFGGGLELALGCHYRIAHAEAQVGLPEVTLGLLPGARGTQLLPRLTGVPAALDLITSGRRILADEALKLGILDKVVNSDPVEEAIRFAQRVSDQPLESRRLCNKPIQSLPNMDSIFSEALLKMRRQHPGCLAQEACVRAVQAAVQYPYEVGIKKEEELFLYLLQSGQARALQYAFFAERKANKWSTPSGASWKTASARPVSSVGVVGLGTMGRGIVISFARARIPVIAVDSDKNQLATANKMITSVLEKEASKMQQSGHPWSGPKPRLTSSVKELGGVDLVIEAVFEEMSLKKQVFAELSAVCKPEAFLCTNTSALDVDEIASSTDRPHLVIGTHFFSPAHVMKLLEVIPSQYSSPTTIATVMNLSKKIKKIGVVVGNCFGFVGNRMLNPYYNQAYFLLEEGSKPEEVDQVLEEFGFKMGPFRVSDLAGLDVGWKSRKGQGLTGPTLLPGTPARKRGNRRYCPIPDVLCELGRFGQKTGKGWYQYDKPLGRIHKPDPWLSKFLSRYRKTHHIEPRTISQDEILERCLYSLINEAFRILGEGIAASPEHIDVVYLHGYGWPRHKGGPMFYASTVGLPTVLEKLQKYYRQNPDIPQLEPSDYLKKLASQGNPPLKEWQSLAGSPSSKL
partner: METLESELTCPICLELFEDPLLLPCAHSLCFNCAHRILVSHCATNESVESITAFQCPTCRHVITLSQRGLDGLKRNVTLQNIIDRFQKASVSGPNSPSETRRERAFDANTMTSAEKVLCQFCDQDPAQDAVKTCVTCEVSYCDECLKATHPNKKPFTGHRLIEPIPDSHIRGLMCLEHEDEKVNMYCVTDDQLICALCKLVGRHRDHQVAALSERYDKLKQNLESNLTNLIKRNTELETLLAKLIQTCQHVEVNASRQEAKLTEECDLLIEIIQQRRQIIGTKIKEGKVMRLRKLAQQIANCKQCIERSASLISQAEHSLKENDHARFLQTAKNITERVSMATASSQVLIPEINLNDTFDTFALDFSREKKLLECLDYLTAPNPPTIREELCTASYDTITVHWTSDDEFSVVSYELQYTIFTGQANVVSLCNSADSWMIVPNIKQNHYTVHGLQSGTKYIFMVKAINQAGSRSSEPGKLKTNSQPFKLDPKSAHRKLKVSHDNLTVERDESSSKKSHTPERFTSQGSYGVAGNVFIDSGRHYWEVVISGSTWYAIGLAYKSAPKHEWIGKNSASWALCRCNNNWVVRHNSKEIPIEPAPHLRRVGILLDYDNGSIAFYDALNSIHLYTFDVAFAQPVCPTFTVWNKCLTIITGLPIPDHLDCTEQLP
B3: Docking protein 3 (Homo sapiens), Q7L591 (parent)
chain: MTRGARLRSDARAQLNQLSLDGGTGSGQKGKCEEFPSSLSSVSPGLEAAALLLAVTMDPLETPIKDGILYQQHVKFGKKCWRKVWALLYAGGPSGVARLESWEVRDGGLGAAGDRSAGPGRRGERRVIRLADCVSVLPADGESCPRDTGAFLLTTTERSHLLAAQHRQAWMGPICQLAFPGTGEASSGSTDAQSPKRGLVPMEENSIYSSWQEVGEFPVVVQRTEAATRCQLKGPALLVLGPDAIQLREAKGTQALYSWPYHFLRKFGSDKGVFSFEAGRRCHSGEGLFAFSTPCAPDLCRAVAGAIARQRERLPELTRPQPCPLPRATSLPSLDTPGELREMPPGPEPPTSRKMHLAEPGPQSLPLLLGPEPNDLASGLYASVCKRASGPPGNEHLYENLCVLEASPTLHGGEPEPHEGPGSRSPTTSPIYHNGQDLSWPGPANDSTLEAQYRRLLELDQVEGTGRPDPQAGFKAKLVTLLSRERRKGPAPCDRP
B4: Dynein light chain 2, cytoplasmic (Homo sapiens), Q96FJ2 (parent)
chain: MSDRKAVIKNADMSEDMQQDAVDCATQAMEKYNIEKDIAAYIKKEFDKKYNPTWHCIVGRNFGSYVTHETKHFIYFYLGQVAILLFKSG
B5: Potassium channel subfamily K member 1 (Homo sapiens), O00180 (parent)
chain: MLQSLAGSSCVRLVERHRSAWCFGFLVLGYLLYLVFGAVVFSSVELPYEDLLRQELRKLKRRFLEEHECLSEQQLEQFLGRVLEASNYGVSVLSNASGNWNWDFTSALFFASTVLSTTGYGHTVPLSDGGKAFCIIYSVIGIPFTLLFLTAVVQRITVHVTRRPVLYFHIRWGFSKQVVAIVHAVLLGFVTVSCFFFIPAAVFSVLEDDWNFLESFYFCFISLSTIGLGDYVPGEGYNQKFRELYKIGITCYLLLGLIAMLVVLETFCELHELKKFRKMFYVKKDKDEDQVHIIEHDQLSFSSITDQAAGMKEDQKQNEPFVATQSSACVDGPANH
partner: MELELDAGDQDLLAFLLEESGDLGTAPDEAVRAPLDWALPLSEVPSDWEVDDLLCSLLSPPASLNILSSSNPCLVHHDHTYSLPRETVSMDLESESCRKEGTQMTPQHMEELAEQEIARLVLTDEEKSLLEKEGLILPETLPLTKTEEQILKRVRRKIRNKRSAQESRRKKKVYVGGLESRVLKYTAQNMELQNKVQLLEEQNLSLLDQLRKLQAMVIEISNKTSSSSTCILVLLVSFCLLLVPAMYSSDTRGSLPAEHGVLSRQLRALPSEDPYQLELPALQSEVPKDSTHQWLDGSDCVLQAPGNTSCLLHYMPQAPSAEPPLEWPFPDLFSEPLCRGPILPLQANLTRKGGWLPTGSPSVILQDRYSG
B6: Meiotic recombination protein DMC1/LIM15 homolog (Homo sapiens), Q14565 (parent)
chain: MKEDQVVAEEPGFQDEEESLFQDIDLLQKHGINVADIKKLKSVGICTIKGIQMTTRRALCNVKGLSEAKVDKIKEAANKLIEPGFLTAFEYSEKRKMVFHITTGSQEFDKLLGGGIESMAITEAFGEFRTGKTQLSHTLCVTAQLPGAGGYPGGKIIFIDTENTFRPDRLRDIADRFNVDHDAVLDNVLYARAYTSEHQMELLDYVAAKFHEEAGIFKLLIIDSIMALFRVDFSGRGELAERQQKLAQMLSRLQKISEEYNVAVFVTNQMTADPGATMTFQADPKKPIGGHILAHASTTRISLRKGRGELRIAKIYDSPEMPENEATFAITAGGIGDAKE
B7: E3 ubiquitin-protein ligase RNF8 (Homo sapiens), O76064 (parent)
chain: MGEPGFFVTGDRAGGRSWCLRRVGMSAGWLLLEDGCEVTVGRGFGVTYQLVSKICPLMISRNHCVLKQNPEGQWTIMDNKSLNGVWLNRARLEPLRVYSIHQGDYIQLGVPLENKENAEYEYEVTEEDWETIYPCLSPKNDQMIEKNKELRTKRKFSLDELAGPGAEGPSNLKSKINKVSCESGQPVKSQGKGEVASTPSDNLDPKLTALEPSKTTGAPIYPGFPKVTEVHHEQKASNSSASQRSLQMFKVTMSRILRLKIQMQEKHEAVMNVKKQTQKGNSKKVVQMEQELQDLQSQLCAEQAQQQARVEQLEKTFQEEEQHLQGLEIAQGEKDLKQQLAQALQEHWALMEELNRSKKDFEAIIQAKNKELEQTKEEKEKMQAQKEEVLSHMNDVLENELQCIICSEYFIEAVTLNCAHSFCSYCINEWMKRKIECPICRKDIKSKTYSLVLDNCINKMVNNLSSEVKERRIVLIRERKAKRLF
partner: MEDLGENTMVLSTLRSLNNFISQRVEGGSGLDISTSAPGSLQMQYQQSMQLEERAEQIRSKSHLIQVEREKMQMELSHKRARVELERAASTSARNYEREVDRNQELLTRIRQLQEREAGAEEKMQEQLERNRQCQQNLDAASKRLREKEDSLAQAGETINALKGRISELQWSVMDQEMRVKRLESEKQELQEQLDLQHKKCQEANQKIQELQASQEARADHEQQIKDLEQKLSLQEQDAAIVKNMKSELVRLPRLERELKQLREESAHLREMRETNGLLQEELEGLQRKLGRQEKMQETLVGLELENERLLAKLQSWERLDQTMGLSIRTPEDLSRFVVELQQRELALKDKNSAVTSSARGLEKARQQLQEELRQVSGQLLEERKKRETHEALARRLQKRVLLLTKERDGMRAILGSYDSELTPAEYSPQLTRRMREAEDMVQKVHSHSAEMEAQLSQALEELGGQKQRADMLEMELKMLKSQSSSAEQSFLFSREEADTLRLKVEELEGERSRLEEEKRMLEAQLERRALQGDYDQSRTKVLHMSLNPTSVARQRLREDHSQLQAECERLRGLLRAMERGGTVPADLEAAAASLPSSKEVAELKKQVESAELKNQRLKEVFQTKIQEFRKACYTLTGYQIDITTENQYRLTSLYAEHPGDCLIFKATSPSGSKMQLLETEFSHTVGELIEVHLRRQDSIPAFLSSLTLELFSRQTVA
B8: N-chimaerin (Homo sapiens), P15882 (parent)
chain: MALTLFDTDEYRPPVWKSYLYQLQQEAPHPRRITCTCEVENRPKYYGREFHGMISREAADQLLIVAEGSYLIRESQRQPGTYTLALRFGSQTRNFRLYYDGKHFVGEKRFESIHDLVTDGLITLYIETKAAEYIAKMTINPIYEHVGYTTLNREPAYKKHMPVLKETHDERDSTGQDGVSEKRLTSLVRRATLKENEQIPKYEKIHNFKVHTFRGPHWCEYCANFMWGLIAQGVKCADCGLNVHKQCSKMVPNDCKPDLKHVKKVYSCDLTTLVKAHTTKRPMVVDMCIREIESRGLNSEGLYRVSGFSDLIEDVKMAFDRDGEKADISVNMYEDINIITGALKLYFRDLPIPLITYDAYPKFIESAKIMDPDEQLETLHEALKLLPPAHCETLRYLMAHLKRVTLHEKENLMNAENLGIVFGPTLMRSPELDAMAALNDIRYQRLVVELLIKNEDILF
partner: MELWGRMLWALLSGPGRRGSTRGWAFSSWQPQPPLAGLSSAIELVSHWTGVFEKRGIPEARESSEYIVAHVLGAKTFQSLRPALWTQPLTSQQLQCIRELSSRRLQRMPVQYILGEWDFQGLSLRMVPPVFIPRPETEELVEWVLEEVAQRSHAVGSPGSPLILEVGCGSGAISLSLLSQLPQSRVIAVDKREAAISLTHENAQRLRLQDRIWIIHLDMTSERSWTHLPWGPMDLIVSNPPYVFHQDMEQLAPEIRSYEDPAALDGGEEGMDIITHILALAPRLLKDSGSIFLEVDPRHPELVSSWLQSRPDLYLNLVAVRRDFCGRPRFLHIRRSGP

Variants of: B1
Conditions: with rop1l_human ROPN1L

Row | Variant | effect of a mutation on the interaction
1 | R213W | with no effect
2 | E484K | with no effect
3 | M439T | with no effect
4 | R398Q | with no effect
5 | N201S | with no effect

Variants of: B2
Conditions: with tri18_human MID1, O15344

Row | Variant | effect of a mutation on the interaction
6 | I646T | disrupting interaction strength
7 | S703F | with no effect
8 | R483Q | with no effect
9 | R556G | with no effect
10 | L715S | with no effect

Variants of: B3
Conditions: with traf1_human TRAF1, Q13077
traf1_human TRAF1, Q13077, sequence (Q13077 whole entry): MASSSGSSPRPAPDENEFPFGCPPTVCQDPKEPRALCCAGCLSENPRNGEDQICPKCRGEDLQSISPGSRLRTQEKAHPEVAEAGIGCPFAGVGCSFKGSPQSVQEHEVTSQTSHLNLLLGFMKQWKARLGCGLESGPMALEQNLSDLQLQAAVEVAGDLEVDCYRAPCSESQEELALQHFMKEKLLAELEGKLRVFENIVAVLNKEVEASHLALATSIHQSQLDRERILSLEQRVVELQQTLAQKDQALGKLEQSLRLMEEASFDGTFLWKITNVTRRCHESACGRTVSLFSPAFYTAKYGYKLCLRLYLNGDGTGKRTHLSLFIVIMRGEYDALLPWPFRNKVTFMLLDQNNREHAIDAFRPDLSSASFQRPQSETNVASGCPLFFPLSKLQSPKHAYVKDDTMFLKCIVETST

Row | Variant | effect of a mutation on the interaction
11 | R229H | with no effect

Variants of: B4
Conditions: with tha10_human THAP10, Q9P2Z0
tha10_human THAP10, Q9P2Z0, sequence (Q9P2Z0 whole entry): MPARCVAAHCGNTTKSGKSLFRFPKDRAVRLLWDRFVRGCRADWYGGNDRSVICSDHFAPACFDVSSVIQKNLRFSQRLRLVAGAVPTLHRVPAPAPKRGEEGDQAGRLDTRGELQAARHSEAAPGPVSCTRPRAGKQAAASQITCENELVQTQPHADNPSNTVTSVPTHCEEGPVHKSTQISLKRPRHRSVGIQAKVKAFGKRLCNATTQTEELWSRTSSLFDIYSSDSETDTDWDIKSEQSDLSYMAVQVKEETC

Row | Variant | effect of a mutation on the interaction
12 | N33S | with no effect

Variants of: B5
Conditions: with creb3_human CREB3, O43889

Row | Variant | effect of a mutation on the interaction
13 | R171H | with no effect

Variants of: B6
Conditions: with gors2_human GORASP2, Q9H8Y8

Row | Variant | effect of a mutation on the interaction
14 | M200V | with no effect
15 | I288T | with no effect

Variants of: B6
Conditions: with sdcb1_human SDCBP

Row | Variant | effect of a mutation on the interaction
16 | M200V | disrupting interaction strength
17 | I288T | disrupting interaction strength

Variants of: B6
Conditions: with kcd17_human KCTD17, Q8N5Z5
kcd17_human KCTD17, Q8N5Z5, sequence (Q8N5Z5 whole entry): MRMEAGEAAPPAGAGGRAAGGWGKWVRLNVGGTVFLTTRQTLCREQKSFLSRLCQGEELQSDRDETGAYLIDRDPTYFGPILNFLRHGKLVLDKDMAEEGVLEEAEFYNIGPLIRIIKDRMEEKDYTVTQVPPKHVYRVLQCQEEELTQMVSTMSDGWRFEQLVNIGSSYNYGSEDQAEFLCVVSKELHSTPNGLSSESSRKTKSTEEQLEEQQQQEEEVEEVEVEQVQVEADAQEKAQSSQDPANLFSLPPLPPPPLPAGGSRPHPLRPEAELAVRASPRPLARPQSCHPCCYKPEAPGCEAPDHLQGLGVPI

Row | Variant | effect of a mutation on the interaction
18 | M200V | disrupting interaction strength

Variants of: B6
Conditions: with psa3_human PSMA3, P25788
psa3_human PSMA3, P25788, sequence (P25788 whole entry): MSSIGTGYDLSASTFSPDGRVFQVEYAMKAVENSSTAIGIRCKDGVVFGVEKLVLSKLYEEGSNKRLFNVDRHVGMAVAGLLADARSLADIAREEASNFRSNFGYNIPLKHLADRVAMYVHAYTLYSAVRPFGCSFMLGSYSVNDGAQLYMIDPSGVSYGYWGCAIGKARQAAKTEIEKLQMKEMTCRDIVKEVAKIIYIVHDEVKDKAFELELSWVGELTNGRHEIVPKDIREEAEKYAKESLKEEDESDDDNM

Row | Variant | effect of a mutation on the interaction
19 | M200V | with no effect
20 | I288T | disrupting interaction strength

Variants of: B7
Conditions: with md1l1_human MAD1L1, Q9Y6D9

Row | Variant | effect of a mutation on the interaction
21 | V310L | with no effect

Variants of: B8
Conditions: with hemk1_human HEMK1, Q9Y5R4

Row | Variant | effect of a mutation on the interaction
22 | D115N | disrupting interaction strength

— IntAct's records for PubMed 31515488
